According to patent US20230235000A1:

Target: recombinant mutant SOD1-G93A (His-tag) (human) (UniProt P00441)
Test: cell-based or functional assay

Sequence of recombinant mutant SOD1-G93A (His-tag) (human) (P00441 whole entry, stated change not applied): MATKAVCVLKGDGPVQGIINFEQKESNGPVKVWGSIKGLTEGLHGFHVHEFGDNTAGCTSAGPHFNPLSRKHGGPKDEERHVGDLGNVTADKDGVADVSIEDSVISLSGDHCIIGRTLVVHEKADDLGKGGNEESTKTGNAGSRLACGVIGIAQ

- filter trap density of pre-aggregated SOD1 G93A after 8 µM FAIM for 2.5 hr (fraction of buffer control): 0.5
Substance: recombinant human FAIM-S (His-tag) (from UniProt Q9NVQ4 1-179)
